Source: patent US20250346668A1 (GENOR BIOPHARMA, published 2025)

Target: T1, human CD3e/g antigen (ACRO, catalog number CDG-H52W5) (human, UniProt P07766 23-126; P09693 23-116)
T1 construct: Bought reagent used as the Biacore analyte; also called hCD3e/g
Test: SPR (Biacore 8K), antibody captured via anti-human Fc
Description: The equilibrium dissociation constant of binding of CD3 antibodies to human CD3e/g antigen (purchased from ACRO, catalog number CDG-H52W5) was determined by kinetic binding method using Biacore 8K (GE) system. Through the capture method, the carboxylated dextran surface of CM5 chip was first activated with NHS (N-hydroxysuccinimide) and EDC (1-(3-dimethylaminopropyl)-3-ethylcarbodiimide hydrochloride), and then added with an anti-human IgG (Fc) antibody, the free amino group of which could form an amide bond with the activated carboxyl group, thereby being fixed on the chip surface. The anti-human IgG (Fc) antibody could bind to the Fc end of CD3 antibodies to capture the antibodies, and then a series of concentrations of antigen were added to obtain the binding and dissociation curves of antibody and antigen, and the corresponding kinetic constants were calculated by Biacore Evaluation software, as shown in the table below.

| Binder | Kd | koff | kon |
| --- | --- | --- | --- |
| hAb001-18 (antibody, V domains shown, Humanized; constant regions not specified) VH: QVQLVQSGAEVKKPGASVKVSCKASGYSFTNYYMHWVRQAPGQRLEWMGWTYPGNNNIKYNEKFKGRVTITRDTSASTAYMELSSLRSEDTAVYYCARDGYGYYFFDYWGQGTLVTVSS VL: DIVMTQSPDSLAVSLGERATINCKSSQSLLNNRTRKNYLAWYQQKPGQPPKLLIYWASTRESGVPDRFTGSGSGTDFTLTISSLQAEDVAVYYCKQSYTLRTFGGGTKLEIK | 35.2 nM | 0.0121 s⁻¹ | 343000 M⁻¹ s⁻¹ |
| hAb001-30 (antibody, V domains shown, Humanized; constant regions not specified) VH: QVQLVQSGAEVKKPGASVKVSCKASGYSFTNYYMHWVKQAPGQRLEWIGWTYPGNNNIKYNEKFKGRATITADTSASTAYMELSSLRSEDTAVYYCARDGYGYYFFDYWGQGTLVTVSS VL: DIVMTQSPDSLAVSLGERATINCKSSQSLLNNRTRKNYLAWYQQKPGQPPKLLIYWASTRESGVPDRFTGSGSGTDFTLTISSLQAEDVAVYYCKQSYTLRTFGGGTKLEIK | 25.8 nM | 0.00835 s⁻¹ | 324000 M⁻¹ s⁻¹ |
| hAb001-29 (antibody, V domains shown, Humanized; constant regions not specified) VH: QVQLVQSGAEVKKPGASVKVSCKASGYSFTNYYMHWVKQAPGQRLEWIGWTYPGNNNIKYNEKFKGRATITADTSASTAYMELSSLRSEDTAVYYCARDGYGYYFFDYWGQGTLVTVSS VL: DIVMTQSPDSLAVSLGERATINCKSSQSLLNNRTRKNYLAWYQQKPGQPPKLLIYWASTRESGVPDRFSGSGSGTDFTLTISSLQAEDVAVYYCKQSYTLRTFGGGTKLEIK | 22.8 nM | 0.00722 s⁻¹ | 316000 M⁻¹ s⁻¹ |
| hAb001-19 (antibody, V domains shown, Humanized; constant regions not specified) VH: QVQLVQSGAEVKKPGASVKVSCKASGYSFTNYYMHWVRQAPGQRLEWMGWTYPGNNNIKYNEKFKGRVTITRDTSASTAYMELSSLRSEDTAVYYCARDGYGYYFFDYWGQGTLVTVSS VL: DIVMTQSPDSLAVSLGERATMSCKSSQSLLNNRTRKNYLAWYQQKPGQPPKLLIYWASTRESGVPDRFSGSGSGTDFTLTISSLQAEDVAVYYCKQSYTLRTFGGGTKLEIK | 94.5 nM | 0.0354 s⁻¹ | 375000 M⁻¹ s⁻¹ |

Further binders by falling Kd, results first:

| Kd | koff | kon | Binder |
| --- | --- | --- | --- |
| 22.6 nM | 0.00896 s⁻¹ | 397000 M⁻¹ s⁻¹ | hAb001-25 (antibody, V domains shown, Humanized; constant regions not specified) VH: QVQLVQSGAEVKKPGASVKVSCKASGYSFTNYYMHWVRQAPGQRLEWIGWTYPGNNNIKYNEKFKGRATITADTSASTAYMELSSLRSEDTAVYYCARDGYGYYFFDYWGQGTLVTVSS VL: DIVMTQSPDSLAVSLGERATINCKSSQSLLNNRTRKNYLAWYQQKPGQPPKLLIYWASTRESGVPDRFSGSGSGTDFTLTISSLQAEDVAVYYCKQSYTLRTFGGGTKLEIK |
| 16.6 nM | 0.00655 s⁻¹ | 394000 M⁻¹ s⁻¹ | hAb001-24 (antibody, V domains shown, Humanized; constant regions not specified) VH: QVQLVQSGAEVKKPGASVKVSCKASGYSFTNYYMHWVRQAPGQRLEWIGWTYPGNNNIKYNEKFKGRVTITADTSASTAYMELSSLRSEDTAVYYCARDGYGYYFFDYWGQGTLVTVSS VL: DIVMTQSPDSLAVSLGERATMSCKSSQSLLNNRTRKNYLAWYQQKPGQPPKLLIYWASTRESGVPDRFTGSGSGTDFTLTISSLQAEDVAVYYCKQSYTLRTFGGGTKLEIK |
| 15.7 nM | 0.00452 s⁻¹ | 288000 M⁻¹ s⁻¹ | hAb001-17 (antibody, V domains shown, Humanized; constant regions not specified) VH: QVQLVQSGAEVKKPGASVKVSCKASGYSFTNYYMHWVRQAPGQRLEWMGWTYPGNNNIKYNEKFKGRVTITRDTSASTAYMELSSLRSEDTAVYYCARDGYGYYFFDYWGQGTLVTVSS VL: DIVMTQSPDSLAVSLGERATINCKSSQSLLNNRTRKNYLAWYQQKPGQPPKLLIYWASTRESGVPDRFSGSGSGTDFTLTISSLQAEDVAVYYCKQSYTLRTFGGGTKLEIK |
| 10.8 nM | 0.00303 s⁻¹ | 281000 M⁻¹ s⁻¹ | hAb001-20 (antibody, V domains shown, Humanized; constant regions not specified) VH: QVQLVQSGAEVKKPGASVKVSCKASGYSFTNYYMHWVRQAPGQRLEWMGWTYPGNNNIKYNEKFKGRVTITRDTSASTAYMELSSLRSEDTAVYYCARDGYGYYFFDYWGQGTLVTVSS VL: DIVMTQSPDSLAVSLGERATMSCKSSQSLLNNRTRKNYLAWYQQKPGQPPKLLIYWASTRESGVPDRFTGSGSGTDFTLTISSLQAEDVAVYYCKQSYTLRTFGGGTKLEIK |
